Consider eight molecules from patent US20140271457A1 (AbbVie / Abbott, published 2014).

The target of the assay is Recombinant Human TNF-α/TNFSF1A (human, UniProt P01375 77-233). Description: cell-based or functional assay.
Sequence of Recombinant Human TNF-α/TNFSF1A (P01375 77-233 limits assumed): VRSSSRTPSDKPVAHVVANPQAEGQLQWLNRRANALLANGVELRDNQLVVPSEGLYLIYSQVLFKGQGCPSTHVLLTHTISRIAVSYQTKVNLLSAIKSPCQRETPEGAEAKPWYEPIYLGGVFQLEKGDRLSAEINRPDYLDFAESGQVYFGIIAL

B1: DVD3018 (bispecific antibody, IgG1)
VH: EVQLVQSGAEVKKPGASVKVSCKASGYTFNNYGIIWVRQAPGQGLEWMGWINTYTGKPTYAQKFQGRVTMTTDTSTSTAYMELSSLRSEDTAVYYCARKLFNTVAVTDNAMDYWGQGTTVTVSSGGGGSGGGGSEVQLVQSGAEVKKPGASVKVSCKASGYTFTKYWLGWVRQAPGQGLEWMGDIYPGYDYTHYNEKFKDRVTLTTDTSTSTAYMELRSLRSDDTAVYYCARSDGSSTYWGQGTLVTVSS
VL: DIQMTQSPSSLSASVGDRVTITCRASQDIENYLNWYQQKPGKAPKLLIYYTSRLQSGVPSRFSGSGSGTDFTLTISSLQPEDFATYFCQQGNTQPPTFGQGTKLEIKRGGSGGGGSGDVLMTQTPLSLPVTPGEPASISCTSSQNIVHSNGNTYLEWYLQKPGQSPQLLIYKVSNRFSGVPDRFSGSGSGTDFTLKISRVEAEDVGVYYCFQVSHVPYTFGGGTKVEIKR
With B1, the “N-Terminal VD huTNFα Neutralization Assay IC50” value came to 0.008 nM.

B2: DVD2796 (bispecific antibody, IgG1)
VH: EVQLVQSGAEVKKPGASVKVSCKASGYTFANYGIIWVRQAPGQGLEWMGWINTYTGKPTYAQKFQGRVTMTTDTSTSTAYMELSSLRSEDTAVYYCARKLFTTMDVTDNAMDYWGQGTTVTVSSASTKGPEVQLVQSGAEVKKPGASVKVSCKASGYTFTKYWLGWVRQAPGQGLEWMGDIYPGYDYTHYNEKFKDRVTLTTDTSTSTAYMELRSLRSDDTAVYYCARSDGSSTYWGQGTLVTVSS
VL: DIQMTQSPSSLSASVGDRVTITCRASQDISQYLNWYQQKPGKAPKLLIYYTSRLQSGVPSRFSGSGSGTDFTLTISSLQPEDFATYFCQQGNTWPPTFGQGTKLEIKRTVAAPSVFIFPPDVLMTQTPLSLPVTPGEPASISCTSSQNIVHSNGNTYLEWYLQKPGQSPQLLIYKVSNRFSGVPDRFSGSGSGTDFTLKISRVEAEDVGVYYCFQVSHVPYTFGGGTKVEIKR
With B2, the “N-Terminal VD huTNFα Neutralization Assay IC50” value amounted to 0.01 nM.

B3: DVD3019 (bispecific antibody, IgG1)
VH: EVQLVQSGAEVKKPGASVKVSCKASGYTFNNYGIIWVRQAPGQGLEWMGWINTYTGKPTYAQKFQGRVTMTTDTSTSTAYMELSSLRSEDTAVYYCARKLFNTVAVTDNAMDYWGQGTTVTVSSASTKGPEVQLVQSGAEVKKPGASVKVSCKASGYTFTKYWLGWVRQAPGQGLEWMGDIYPGYDYTHYNEKFKDRVTLTTDTSTSTAYMELRSLRSDDTAVYYCARSDGSSTYWGQGTLVTVSS
VL: DIQMTQSPSSLSASVGDRVTITCRASQDIENYLNWYQQKPGKAPKLLIYYTSRLQSGVPSRFSGSGSGTDFTLTISSLQPEDFATYFCQQGNTQPPTFGQGTKLEIKRTVAAPDVLMTQTPLSLPVTPGEPASISCTSSQNIVHSNGNTYLEWYLQKPGQSPQLLIYKVSNRFSGVPDRFSGSGSGTDFTLKISRVEAEDVGVYYCFQVSHVPYTFGGGTKVEIKR
In the case of B3, the “N-Terminal VD huTNFα Neutralization Assay IC50” value amounted to 0.009 nM.

B4: DVD2797 (bispecific antibody, IgG1)
VH: EVQLVQSGAEVKKPGASVKVSCKASGYTFANYGIIWVRQAPGQGLEWMGWINTYTGKPTYAQKFQGRVTMTTDTSTSTAYMELSSLRSEDTAVYYCARKLFTTMDVTDNAMDYWGQGTTVTVSSASTKGPSVFPLAPEVQLVQSGAEVKKPGASVKVSCKASGYTFTKYWLGWVRQAPGQGLEWMGDIYPGYDYTHYNEKFKDRVTLTTDTSTSTAYMELRSLRSDDTAVYYCARSDGSSTYWGQGTLVTVSS
VL: DIQMTQSPSSLSASVGDRVTITCRASQDISQYLNWYQQKPGKAPKLLIYYTSRLQSGVPSRFSGSGSGTDFTLTISSLQPEDFATYFCQQGNTWPPTFGQGTKLEIKRTVAAPDVLMTQTPLSLPVTPGEPASISCTSSQNIVHSNGNTYLEWYLQKPGQSPQLLIYKVSNRFSGVPDRFSGSGSGTDFTLKISRVEAEDVGVYYCFQVSHVPYTFGGGTKVEIKR
Regarding B4, the “N-Terminal VD huTNFα Neutralization Assay IC50” value is 0.002 nM.

B5: DVD2798 (bispecific antibody, IgG1)
VH: EVQLVQSGAEVKKPGASVKVSCKASGYTFTKYWLGWVRQAPGQGLEWMGDIYPGYDYTHYNEKFKDRVTLTTDTSTSTAYMELRSLRSDDTAVYYCARSDGSSTYWGQGTLVTVSSGGGGSGGGGSEVQLVQSGAEVKKPGASVKVSCKASGYTFANYGIIWVRQAPGQGLEWMGWINTYTGKPTYAQKFQGRVTMTTDTSTSTAYMELSSLRSEDTAVYYCARKLFTTMDVTDNAMDYWGQGTTVTVSS
VL: DVLMTQTPLSLPVTPGEPASISCTSSQNIVHSNGNTYLEWYLQKPGQSPQLLIYKVSNRFSGVPDRFSGSGSGTDFTLKISRVEAEDVGVYYCFQVSHVPYTFGGGTKVEIKRGGSGGGGSGDIQMTQSPSSLSASVGDRVTITCRASQDISQYLNWYQQKPGKAPKLLIYYTSRLQSGVPSRFSGSGSGTDFTLTISSLQPEDFATYFCQQGNTWPPTFGQGTKLEIKR
On to B5, for which the “C-Terminal VD huTNFα Neutralization Assay IC50” value is 0.381 nM.

B6: DVD2799 (bispecific antibody, IgG1)
VH: EVQLVQSGAEVKKPGASVKVSCKASGYTFTKYWLGWVRQAPGQGLEWMGDIYPGYDYTHYNEKFKDRVTLTTDTSTSTAYMELRSLRSDDTAVYYCARSDGSSTYWGQGTLVTVSSASTKGPEVQLVQSGAEVKKPGASVKVSCKASGYTFANYGIIWVRQAPGQGLEWMGWINTYTGKPTYAQKFQGRVTMTTDTSTSTAYMELSSLRSEDTAVYYCARKLFTTMDVTDNAMDYWGQGTTVTVSS
VL: DVLMTQTPLSLPVTPGEPASISCTSSQNIVHSNGNTYLEWYLQKPGQSPQLLIYKVSNRFSGVPDRFSGSGSGTDFTLKISRVEAEDVGVYYCFQVSHVPYTFGGGTKVEIKRTVAAPDIQMTQSPSSLSASVGDRVTITCRASQDISQYLNWYQQKPGKAPKLLIYYTSRLQSGVPSRFSGSGSGTDFTLTISSLQPEDFATYFCQQGNTWPPTFGQGTKLEIKR
As for B6, the “C-Terminal VD huTNFα Neutralization Assay IC50” value came to 3.08 nM.

B7: DVD2801 (bispecific antibody, IgG1)
VH: EVQLVQSGAEVKKPGASVKVSCKASGYTFTKYWLGWVRQAPGQGLEWMGDIYPGYDYTHYNEKFKDRVTLTTDTSTSTAYMELRSLRSDDTAVYYCARSDGSSTYWGQGTLVTVSSASTKGPEVQLVQSGAEVKKPGASVKVSCKASGYTFANYGIIWVRQAPGQGLEWMGWINTYTGKPTYAQKFQGRVTMTTDTSTSTAYMELSSLRSEDTAVYYCARKLFTTMDVTDNAMDYWGQGTTVTVSS
VL: DVLMTQTPLSLPVTPGEPASISCTSSQNIVHSNGNTYLEWYLQKPGQSPQLLIYKVSNRFSGVPDRFSGSGSGTDFTLKISRVEAEDVGVYYCFQVSHVPYTFGGGTKVEIKRTVAAPSVFIFPPDIQMTQSPSSLSASVGDRVTITCRASQDISQYLNWYQQKPGKAPKLLIYYTSRLQSGVPSRFSGSGSGTDFTLTISSLQPEDFATYFCQQGNTWPPTFGQGTKLEIKR
B7: the “C-Terminal VD huTNFα Neutralization Assay IC50” value came out at 0.116 nM.

B8: DVD2802 (bispecific antibody, IgG1)
VH: EVQLVQSGAEVKKPGASVKVSCKASGYTFTKYWLGWVRQAPGQGLEWMGDIYPGYDYTHYNEKFKDRVTLTTDTSTSTAYMELRSLRSDDTAVYYCARSDGSSTYWGQGTLVTVSSASTKGPSVFPLAPEVQLVQSGAEVKKPGASVKVSCKASGYTFANYGIIWVRQAPGQGLEWMGWINTYTGKPTYAQKFQGRVTMTTDTSTSTAYMELSSLRSEDTAVYYCARKLFTTMDVTDNAMDYWGQGTTVTVSS
VL: DVLMTQTPLSLPVTPGEPASISCTSSQNIVHSNGNTYLEWYLQKPGQSPQLLIYKVSNRFSGVPDRFSGSGSGTDFTLKISRVEAEDVGVYYCFQVSHVPYTFGGGTKVEIKRTVAAPDIQMTQSPSSLSASVGDRVTITCRASQDISQYLNWYQQKPGKAPKLLIYYTSRLQSGVPSRFSGSGSGTDFTLTISSLQPEDFATYFCQQGNTWPPTFGQGTKLEIKR
Take B8: the “C-Terminal VD huTNFα Neutralization Assay IC50” value stood at 0.195 nM.
